B1: mAb10971 (antibody, V domains shown)
VH: EVQLVESGGGLIQPGGSLRLSCAASGVTVSSNYMSWVRQAPGKGLEWVSVIYSGGSTFYSDSVKGRFSISRDNSKNTLYLQMNSLRAEDTAVYYCARDLYYYGMDVWGQGTTVTVSS
VL: DIQLTQSPSFLSASVGDRVTITCRASQGISTYLAWYQQKPGKAPKLLIYAASTLQSGVPSRFSGSGSGTEFTLTISSLQPEDFATYYCQQLDSYPGLTFGGGTKVEIKR
B2: mAb10957 (antibody, V domains shown)
VH: B1 VH with I12V, S60A, S68T, Y79F, A87I, Y100G, Y101P
VL: B1 VL with T31S, E70Q, T72I, D92N, L97F, G101P, E106D
B3: mAb10956 (antibody, V domains shown)
VH: B1 VH with I12V, V27L, S60A, S68T, Y100I, Y101K
VL: not shown
B4: mAb11006 (antibody, V domains shown)
VH: EVQLVESGGGLVQPGGSLRLSCAASGFIVSRNYMSWVRQAPGKGLEWVSVIYSGGSTFYADSVKGRFTISRHNSKNTLYLQMNSLKAEDTAVYYCARELRGYFDYWGQGTLVTVSS
VL: DIQLTQSPSFLSASVGDRVTITCWASQGISSYLAWYQQKPGKAPKLLIYAASTLQSGVPSRFSGSGSGTEFTLTISSLQPEDFATYYCQLLNSYPYTFGQGTKLEIK
B5: mAb10915 (antibody, V domains shown)
VH: B4 VH with I28T, R31S, S35N, K86R, A87P, E98D, R100G
VL: not shown
B6: mAb11008 (antibody, V domains shown)
VH: EVQLVESGGGLVQPGGSLRLSCAASGFTVSSNYMTWVRQAPGKGLEWVSVIYSGGSTFYADSVKGRFTISRHNSENTLYLQMNSLRAEDTAVYYCARDLAAAGTDYWGQGALVTVSS
VL: B4 VL with E81D, L90H, P95L
B7: mAb11004 (antibody, V domains shown)
VH: QVQLVESGGGVVQPGRSLRLSCVASGFTFSIYGMDWVRQAPGKGLEWVAVISYDGSNKYYADSVKGRFTISRDNSKNTLYLQMNSLRPEDTAVYYCAKDREAAADAFDIWGQGTMVTVSS
VL: DIQMTQSPSSVSASVGDRVTITCRASQGISSWLAWYQQKPGKAPKLLIYAASSLHSGVPSRFSGSGSGTDFTLTISSLQPEDFATYYCQQANSFRLTFGGGTKVEIK
B8: mAb10998 (antibody, V domains shown)
VH: EVQLVESGGGLVHPGGSLRLSCAASGLTVSSNYMSWVRQAPGKGLEWVSVIYSGGSTYYADSVKGRFTISRHNSKNTLFLQMNSLRAEDTAVYYCARDRPITGTTLDVWGQGTTVTVSS
VL: DIQMTQSPSSLFASVGDRVTITCRASQSISSYLNWYQQKPGKAPKLLIYAASSLQSGVPSRFSGSGSGTDFTLTISSLQPEDFAFYYCQQTYSTPPITFGQGTRLEIK
B9: mAb10964 (antibody, V domains shown)
VH: QVQLQESGPGLVKPSETLSLTCTVSGGSINNYYWIWIRQPPGKGLEWIGYIYHSGSTNYNPSLKSRVTISVDTSKNQFSLKVSSVTAADTAVYYCANMVRGVYEDDYWGQGTLVTVSS
VL: DIQMTQSPSSLSASVGDRVTITCRASQSISNYLNWYQQKPGKAPKLLIFAASSLRSGVPSRFSGSGSGTDFTLTISSLHPEDFATYYCQQNYNTPLTFGPGTKVDIKR
B10: mAb10965 (antibody, V domains shown)
VH: EVQLVESGGGLIQPGGSLRLSCAASVFTVSYNYMSWVRQAPGKGLEWVSVIYSGGSTYYADSVKGRFTISRDNSKNTLYLQMNSLRAEDTAVYYCARALPGWGGSFEYFDYWGQGTLVTVSS
VL: not shown
B11: mAb10967 (antibody, V domains shown)
VH: EVQLVESGGGLVQPGGSLRLSCAASGFTVSSNYMSWVRQAPGKGLEWVSVIYPGGSTFYADSVKGRFTISRDNSKNTLYLQMNSLRAEDTAVYYCARDQRDFAWGQGTLVTVSS
VL: DIQMTQSPSSLSASVGDRVTITCQASQDISNYLNWYQQKPGKAPKLLIYDASNLETGVPSRFSGSGSGTDFTFTISGLQPEDIATYYCQQYDNLPPTFGQGTRLEIKR
B12: mAb10955 (antibody, V domains shown)
VH: EVQLVESGGGLVQPGGSLRVSCAASGFTVSRNYMSWVRQAPGKGLEWVSVIYSGGSTFYADSVKGRFTISRDNSKNTLYLQMNSLRAEDTAIYYCARYIPRFDPWGQGTLVTVSS
VL: B11 VL with Y36F, K42R, G77S, P96I
B13: mAb10954 (antibody, V domains shown)
VH: EVQLVESGGGLVQPGGSLRLSCAASGITVSSNYMSWVRQAPGKGLEWVSLIYSGGSTYYADSVKGRFTISRDNSKNTLYLQMNSLRVEDTAVYYCARDHGMAAAGYNYWGQGTLVTVSS
VL: B11 VL with S30N, N31K, S76N, G77S, I83F, Y87F, T97A, R103K, L104V
B14: mAb11002 (antibody, V domains shown)
VH: EVQLVESGGGLVQPGGSLRLSCAASGFTVSSNYMSWVRQAPGKGLEWVSVIYSGGSTFYADSVKGRFTISRHNSKNTLYLQMNSLRAEDTAVYYCAREGYGMDVWGQGTTVTVSS
VL: not shown
B15: mAb10914 (antibody, V domains shown)
VH: EVQLVESGGGLVQPGGSLRLSCAASGLIVSRNYMIWVRQAPGKGLEWVSVIYSGGSTFYADSVKGRFTISRHNSKNTLYLQMNSLRAEDTAVYYCARDLGTGGMDVWGQGTTVTVSS
VL: DIQLTQSPSFLSASVGDRVTITCWASQGISSYLAWYQQKPGKAPKLLIYAASTLQSGVPSRFSGSGSGTEFTLTISSLQPEDFATYYCQQLNSYPLTFGGGTKVEIKR
B16: mAb10989 (antibody, V domains shown)
VH: QVQLVQSGAEVKKPGASVKVSCKASGYIFTGYYMHWVRQAPGQGLEWMGWINPNSGGANYAQKFQGRVTLTRDTSITTVYMELSRLRFDDTAVYYCARGSRYDWNQNNWFDPWGQGTLVTVSS
VL: QSALTQPASVSGSPGQSITISCTGTSSDVGTYNYVSWYQQHPGKAPKLMIFDVSNRPSGVSDRFSGSKSGNTASLTISGLQAEDEADYYCSSFTTSSTVVFGGGTKLTVLG
B17: mAb10913 (antibody, V domains shown)
VH: EVQLVESGGGLVQPGGSLRLSCAASGFTFRNYEMNWVRQAPGKGLEWVSYITSSGSTMYYADSVKGRFTISRDNAKNSLYLQMNSLRAEDTAVYYCARDGFYYYYAMDVWGQGTTVTVSS
VL: QSVLTQPPSVSAAPGQKVTISCSGSSSNIGNNYVSWYQQLPGTAPKLLIYDNNKRPSGIPDRFSGSKSGTSATLGITGLQTGDEADYYCGTWDSSLSVGRVFGTGTKVTVLG
B18: mAb11010 (antibody, V domains shown)
VH: QVQLVESGGGVVQPGRSLRLSCAASGFTFSSYGMHWVRQAPGKGLEWVAVISYDGSYKYYADSVKGRFTISRDNSKNTLYLQMNSLRAEDTAVYYCAIDGGTVTTIFDYWGQGTLVTVSS
VL: not shown
B19: mAb10969 (antibody, V domains shown)
VH: QVQLVESGGGVVQPGRSLRLSCAASGFTFSSYAMHWVRQAPGKGLEWVAVISYDGSNKYYADSVKGRFTISRDNSKNTLYLQMNSLRAEDTAVYYCARDGRTITMVRGVIDDAFDIWGQGTMVTVSS
VL: not shown
B20: mAb10966 (antibody, V domains shown)
VH: EVQLVESGGGLVQPGGSLRLSCAASGLTVSSNYMSWVRQAPGKGLEWVSVIYSGGSTFYADSVKGRFTISRDNSKNTLYLQMNSLRPEDTAVYYCAREGRIAATGYGMDVWGQGTTVTVSS
VL: not shown
B21: mAb10932 (antibody, V domains shown)
VH: EVQLVESGGGLVQSGGSLRLSCAASGLTVSSNYMSWVRQAPGKGLEWVSVIYSGGSTFYSDSVKGRFTISRHNSKNTLYLQMNSLRAEDTAVYYCARARGDAFDIWGQGTMVTVSS
VL: not shown
B22: mAb10934 (antibody, V domains shown)
VH: not shown
VL: B11 VL with S30W, L33I, E55K, G77S, Y91H, N93D, R103K, L104V
B23: mAb10913 (antibody, V domains shown)
VH: B17 VH
VL: B17 VL
B24: mAb10985 (antibody, V domains shown)
VH: EVQLVESGGGLVQPGRSLRLSCAASGFTFDDYAMHWVRQAPGKGLEWVSGISWNRGSIGYADSVKGRFTISRDNAKNSLYLQMSSLRAEDTALYYCAKDGERWDSVVVPSARNGMDVWGQGTTVTVSS
VL: QSVLTQPPSVSGAPGQRVTISCTGSSSNIGAGYDVHWYQQLPGTAPKLLIYGNSNRPSGVPDRFSGSKSGTSASLAITGLQAEDEADYYCQSYDSSLSGSYVFGTGTKVTVLG

In patent US20240043504A1 (published 2024) one finds binding result and MFI data, which are given here for 24 molecules.

Changes are numbered by the printed parent chain.

One test deals with SARS-COV-2 RBD-mFc (SARS-CoV-2). Nature of the test: Luminex beads.
With B1, the binding result was “binds”.
On the same count and under the same terms, the value for B2 was “binds”.
Regarding B3, the binding result is on record as “binds”.
The same measure, in the same setting: the value for B4 was “binds”; that for B5 was “binds”.
On the same count and under the same terms, with B6 the entry was “binds”.
On to B7, for which the binding result was “binds”.
For the molecule B8, the binding result is listed as “binds”.
For the molecule B9, the binding result is given as “binds”.
The same measure, in the same setting: the value for B10 was “binds”; that for B11 was “binds”; that for B12 was “binds”.
Still for that read-out and setting: the value for B13 was “binds”; that for B14 was “binds”; that for B15 was “binds”.
Still for that read-out and setting: the value for B16 was “binds”; that for B17 was “binds”; that for B18 was “binds”.
For the molecule B19, the binding result was “binds”.
The same measure, in the same setting: the value for B20 was “binds”.

In a further test the target is SARS-CoV-2 Spike Protein (S1 Subunit, His Tag) (Sino 40591-V08H) (SARS-CoV-2, UniProt P0DTC2 16-685). Nature of the test: Luminex, supernatant.
As for B21, the MFI came to 22100 MFI.
B22 returned an MFI of 27500 MFI.
The same measure, in the same setting: with B23 the figure was 24900 MFI.

For another test, the target named is SARS-CoV-2 Spike Protein (S1 Subunit, Fc Tag) (Sino 40591-V02H) (SARS-CoV-2, UniProt P0DTC2 16-685). Nature of the test: Luminex, supernatant.
Molecule B21 displayed an MFI of 17600 MFI.
Take B24: the MFI is 16200 MFI.
Still for that read-out and setting: the value for B22 was 20600 MFI; that for B23 was 18900 MFI.
